± gives the standard deviation.
Assay: collision cross section of unmodified peptide (TIMS, N2, iRT-aligned); higher = larger / more extended gas-phase ion
Description: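 Unmodified synthetic counterpart peptides (ProteomeTools / JPT), analysed by nanoLC-TIMS-QTOF (dda-PASEF). 1/K0 was aligned run-wise to spiked iRT peptides and converted to CCS in N2 (Mason-Schamp). Values are the mean of 1-3 technical replicates for the most abundant feature at each charge state. The same unmodified peptide is repeated across rows and is averaged.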

Substance	collision cross section (charge state: 2) [Å²]	collision cross section (charge state: 3) [Å²]
TPNLYIYSKK	381.12 ± 1.4	430.18 ± 4.5
AQSYAQQLGR	352.59 ± 0.74	
SDSGKPYYYNSQTK	416.14 ± 3	478.86 ± 16
EPFSGDHSADGFEVTSR		491.61 ± 0.86
GPPGPAGPSGESR	343.88 ± 1	
GDIGETGVPGAEGPR	381.04 ± 0.92	
TVSKVDDFLANEAK	420.02 ± 1.7	500.46 ± 2.4
GVQYLNEIK	351.72 ± 0.74	
LDHLAEKFR	365.36 ± 1.5	453.05 ± 4
DLEEAEEYK	358.42 ± 0.55	
VRLQTTLR	347.32 ± 0.41	442.81 ± 6.5
FYTEDSPGLK	352.82 ± 0.55	
ITGKNQVTATK	365.6 ± 0.91	448.51 ± 5
FVDSKVGEFSGANK	415.64 ± 1.8	
VLTANSNPSSPSAAKR	431.51 ± 2	517.98 ± 8.8
VGIDTPDIDIHGPEGKLK	461.05 ± 2.5	538.36 ± 1.9
AQPQDSRGGSK	349.19 ± 0.54	421.45 ± 6.4
GEVGAGAGPGAQAGPSAKR	436.7 ± 2.1	469.26 ± 5.9
AGQKLIDVNHYAK	420.25 ± 2.7	474.66 ± 4.5
VVPGYGHAVLR	378.3 ± 0.16	449.83 ± 0.86
GGSAGGRGFFR	360.79 ± 0.54	432.59 ± 6.7
GSRGFPGEK	330.16 ± 0.23	
LGHYATQLQK	363.47 ± 0.14	429.28 ± 0.3
IPAASAAAMNLASAR	397.84 ± 0.66	496.43 ± 0.86
TAGSSGVTAGRPRPTAR		538.39 ± 0.86
VGVEAKQPNSAIR	404.68 ± 1.4	493.5 ± 7.8
HIGFVYHPTK	378.19 ± 1.1	450.25 ± 1.7
GSLGAQKLANTCFNEIEK	483.18 ± 2.7	511.29 ± 4.4

Substance	collision cross section (charge state: 2) [Å²]	collision cross section (charge state: 3) [Å²]
GITGKPGPK	312.13 ± 0.57	
SGATAGAAGGRGK	361.16 ± 1.5	443.5 ± 4.6
TLDEILQEKK	375.43 ± 1	432.42 ± 3.6
GHPGPPGPPGEQGLPGLAGK	440.68 ± 1.2	497.21 ± 14
SALAAAQTQVAEYK	422.48 ± 1.1	
LGNTISSLFGGGTTPDAK	447.17 ± 0.13	
AIQLNPSYIR	373.91 ± 2.8	
HGVYNPNK	330.7 ± 0.79	
KYEEIDNAPEER	401.01 ± 1.2	466.95 ± 4.5
GETASKLQSEISR	404.79 ± 2.8	463.95 ± 4.6
SDDESSQKDIK	372.47 ± 1.1	449.63 ± 0.82
GEGGFGGRGGGR	340.19 ± 0.38	426.14 ± 4
LAPEYEAAATR	358.54 ± 0.15	432.76 ± 0.89
DYILEGEPGK	348.93 ± 0.15	
ALLQAKASGK	343.27 ± 1.1	435.19 ± 4.7
HFGPVPPSQGRGR		493.79 ± 0.89
TATLATLATR	333.86 ± 0.69	
GPPGPPGK	285.24 ± 0.86	
GDTGLPGPQGIPGGVGSPGR	429.26 ± 1	497.26 ± 35
YRGDYDR	327.87 ± 0.56	412.63 ± 6.2
DHSKPISNPSDNK	390.86 ± 0.14	478.96 ± 0.22
IQNGAQGIRFIYTR		511.04 ± 0.58
VVDLLAPYAK	358.2 ± 7.9	
DLYEPSHGAK	358.09 ± 0.48	429.53 ± 1.1
VQFAPEKPGPQPSAETTR		507.38 ± 9.7
VELCSFSGYK	358.19 ± 0.59	
SRGGGGNFGPGPGSNFR		460.96 ± 1.4

Source: the supplement of paper PMC10598134
